Assay results: article PMC1635305 (Nucleic Acids Research, 2006)
Read-outs that look alike come from different tables or passages of the source.

Experiments:
[1] = target: the molecule itself; assay: negative-stain electron microscopy single-particle reconstruction
[2] = target: the molecule itself; assay: as above; remark: listed apart in the source

B1: Methanothermobacter thermautotrophicus MCM (natural protein, UniProt O27798 1-666, looked up)
chain: MMKTVDKSKTLTKFEEFFSLQDYKDRVFEAIEKYPNVRSIEVDYLDLEMFDPDLADLLIEKPDDVIRAAQQAIRNIDRLRKNVDLNIRFSGISNVIPLRELRSKFIGKFVAVDGIVRKTDEIRPRIVKAVFECRGCMRHHAVTQSTNMITEPSLCSECGGRSFRLLQDESEFLDTQTLKLQEPLENLSGGEQPRQITVVLEDDLVDTLTPGDIVRVTGTLRTVRDERTKRFKNFIYGNYTEFLEQEFEELQISEEDEEKIKELAGDPNIYEKIIRSTAPSIHGYREVKEAIALQLFGGTGKELDDKTRLRGDIHILIVGDPGIGKSQMLKYVSKLAPRGIYTSGKGTSGVGLTAAAVRDEFGGWSLEAGALVLGDKGNVCVDELDKMREEDRSAIHEALEQQTISIAKAGIMATLNSRCSVLAAANPKFGRFDSYKSIAEQIDLPSTILSRFDLIFVVEDKPDEEKDRELARHILKTHKEDHMPFEIDPELLRKYIAYARKNVRPVLTDEAMQVLEDFYVSMRASAADEDSPVPITARQLEALVRLSEASAKIKLKEHVEAEDARKAIKLSQACLKQVGYDPETGKIDIDKVEGRTPKSERDKFRLLLELIKEYEDDYGGRAPTNILITEMMDRYNVSEEKVEELIRILKDKGAIFEPARGYLKIV
- stoichiometry N [1]: 14
- stoichiometry N [2]: 12
